Laboratory results reported in US20110142840A1 (ONCOMED PHARMACEUTICALS, published 2011).

B1: 28-MET human IgG1 antibody (antibody, V domains shown)
VH: QVQLQESGPGLVKPGETLSLTCTVSGGSISGYYWSWIRQAPGKGLEWIGEIYYAGSTLYNPSLKGRVTISVDTSKNQFSLKLSSVTAEDTAVYYCARHYGLDWFGDTGMDVWGQGTLVTVSS
VL: DIELTQPPSVSVAPGQSITISCSGDNLGDKYVHWYQQKPGQAPVLVIYDDNERPSGIPERFSGSNSGNTATLTISGTQAEDEADYYCSAYGSHSGTVFGGGTKLTVLG
notes: Fab variable regions combined with human constant regions to give a full human IgG1; ATCC deposit PTA-9149; also called 28-MET IgG; MET-28 IgG
B2: 28-MET monovalent Fab (Fab, V domains shown)
VH: QVQLQESGPGLVKPGETLSLTCTVSGGSISGYYWSWIRQAPGKGLEWIGEIYYAGSTLYNPSLKGRVTISVDTSKNQFSLKLSSVTAEDTAVYYCARHYGLDWFGDTGMDVWGQGTLVTVSS
VL: DIELTQPPSVSVAPGQSITISCSGDNLGDKYVHWYQQKPGQAPVLVIYDDNERPSGIPERFSGSNSGNTATLTISGTQAEDEADYYCSAYGSHSGTVFGGGTKLTVLG
notes: Monovalent human Fab from the Morphosys HuCAL GOLD Fab library; the Fab constant parts are not; also called Fab-28; R28
B3: 19-MET (divalent dimer of two 28-MET Fabs linked via a helix-loop-helix motif) (other)
VH: QVQLQESGPGLVKPGETLSLTCTVSGGSISGYYWSWIRQAPGKGLEWIGEIYYAGSTLYNPSLKGRVTISVDTSKNQFSLKLSSVTAEDTAVYYCARHYGLDWFGDTGMDVWGQGTLVTVSS
VL: DIELTQPPSVSVAPGQSITISCSGDNLGDKYVHWYQQKPGQAPVLVIYDDNERPSGIPERFSGSNSGNTATLTISGTQAEDEADYYCSAYGSHSGTVFGGGTKLTVLG
notes: also called 19d; dimeric Fab-dHLX of Fab 28
B4: 13-MET human IgG1 antibody (antibody, V domains shown)
VH: QVQLKESGPALVKPTQTLTLTCTFSGFSLSTSGMVVSWIRQPPGKALEWLAFISWDDDKYYSTSLKTRLTISKDTSKNQVVLTMTNMDPVDTATYYCAREPGRYGGYYFDYWGQGTLVTVSS
VL: DIQMTQSPSSLSASVGDRVTITCRASQTISHYLAWYQQKPGKAPKLLIYAASILQSGVPSRFSGSGSGTDFTLTISSLQPEDFAVYYCQQYSGFPVTFGQGTKVEIKR
notes: Fab variable regions combined with human constant regions to give a full human IgG1; ATCC deposit PTA-9148; also called 13-MET IgG; MET-13 IgG
B5: 13-MET monovalent Fab (Fab, V domains shown)
VH: QVQLKESGPALVKPTQTLTLTCTFSGFSLSTSGMVVSWIRQPPGKALEWLAFISWDDDKYYSTSLKTRLTISKDTSKNQVVLTMTNMDPVDTATYYCAREPGRYGGYYFDYWGQGTLVTVSS
VL: DIQMTQSPSSLSASVGDRVTITCRASQTISHYLAWYQQKPGKAPKLLIYAASILQSGVPSRFSGSGSGTDFTLTISSLQPEDFAVYYCQQYSGFPVTFGQGTKVEIKR
notes: Monovalent human Fab from the Morphosys HuCAL GOLD Fab library; the Fab constant parts are not; also called Fab-13; R13
B6: 9-MET (divalent dimer of two 13-MET Fabs linked via a helix-loop-helix motif) (other)
VH: QVQLKESGPALVKPTQTLTLTCTFSGFSLSTSGMVVSWIRQPPGKALEWLAFISWDDDKYYSTSLKTRLTISKDTSKNQVVLTMTNMDPVDTATYYCAREPGRYGGYYFDYWGQGTLVTVSS
VL: DIQMTQSPSSLSASVGDRVTITCRASQTISHYLAWYQQKPGKAPKLLIYAASILQSGVPSRFSGSGSGTDFTLTISSLQPEDFAVYYCQQYSGFPVTFGQGTKVEIKRT
notes: also called 9d; dimeric Fab-dHLX of Fab 13

Columns and labels:
[1] = biological target: T1, human MET Receptor on cells (human, UniProt P08581 25-1390); assay: cell-based or functional assay
T1 sequence (P08581 25-1390): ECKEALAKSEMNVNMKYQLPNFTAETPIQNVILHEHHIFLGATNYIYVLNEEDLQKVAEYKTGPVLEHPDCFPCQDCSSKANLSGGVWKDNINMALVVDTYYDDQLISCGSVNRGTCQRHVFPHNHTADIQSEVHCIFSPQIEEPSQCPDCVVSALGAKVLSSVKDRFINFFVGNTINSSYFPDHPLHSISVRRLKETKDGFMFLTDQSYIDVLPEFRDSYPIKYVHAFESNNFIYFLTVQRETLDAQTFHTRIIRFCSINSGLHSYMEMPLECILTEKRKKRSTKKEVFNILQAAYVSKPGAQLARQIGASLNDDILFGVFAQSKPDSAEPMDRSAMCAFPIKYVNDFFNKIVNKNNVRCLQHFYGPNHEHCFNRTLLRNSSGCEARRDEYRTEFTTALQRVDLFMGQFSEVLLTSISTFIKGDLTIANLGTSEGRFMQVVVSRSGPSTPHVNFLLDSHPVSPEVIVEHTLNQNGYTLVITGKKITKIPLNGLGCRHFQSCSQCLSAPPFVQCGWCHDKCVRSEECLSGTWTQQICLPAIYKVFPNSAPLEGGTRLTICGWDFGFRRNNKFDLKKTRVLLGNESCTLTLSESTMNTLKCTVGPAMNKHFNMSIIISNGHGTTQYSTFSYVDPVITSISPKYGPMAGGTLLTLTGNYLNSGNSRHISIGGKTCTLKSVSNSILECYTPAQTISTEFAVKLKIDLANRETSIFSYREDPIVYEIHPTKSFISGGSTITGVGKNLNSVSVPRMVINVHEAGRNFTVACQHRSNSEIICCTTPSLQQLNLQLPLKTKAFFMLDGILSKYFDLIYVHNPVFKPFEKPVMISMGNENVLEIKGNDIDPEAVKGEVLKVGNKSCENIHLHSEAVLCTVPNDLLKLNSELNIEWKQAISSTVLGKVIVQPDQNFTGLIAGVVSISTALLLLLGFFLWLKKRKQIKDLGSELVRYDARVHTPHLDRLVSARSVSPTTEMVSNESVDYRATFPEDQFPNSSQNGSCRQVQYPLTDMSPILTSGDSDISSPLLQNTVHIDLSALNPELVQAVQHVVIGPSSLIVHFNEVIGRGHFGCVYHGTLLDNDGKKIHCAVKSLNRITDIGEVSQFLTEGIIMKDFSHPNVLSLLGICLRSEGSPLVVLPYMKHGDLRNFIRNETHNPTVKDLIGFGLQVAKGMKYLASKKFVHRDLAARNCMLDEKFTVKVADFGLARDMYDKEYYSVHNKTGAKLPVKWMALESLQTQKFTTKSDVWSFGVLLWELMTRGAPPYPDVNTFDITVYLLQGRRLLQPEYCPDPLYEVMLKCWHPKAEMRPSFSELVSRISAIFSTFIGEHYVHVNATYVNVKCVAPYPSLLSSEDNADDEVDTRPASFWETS

[2] = biological target: T2, recombinant human MET SEMA domain (human, UniProt P08581 27-515); assay: plate binding assay, 384-well plates coated with recombinant domains
T2 construct: domain: SEMA; also called SEMA domain of MET-ECD
T2 sequence (P08581 27-515): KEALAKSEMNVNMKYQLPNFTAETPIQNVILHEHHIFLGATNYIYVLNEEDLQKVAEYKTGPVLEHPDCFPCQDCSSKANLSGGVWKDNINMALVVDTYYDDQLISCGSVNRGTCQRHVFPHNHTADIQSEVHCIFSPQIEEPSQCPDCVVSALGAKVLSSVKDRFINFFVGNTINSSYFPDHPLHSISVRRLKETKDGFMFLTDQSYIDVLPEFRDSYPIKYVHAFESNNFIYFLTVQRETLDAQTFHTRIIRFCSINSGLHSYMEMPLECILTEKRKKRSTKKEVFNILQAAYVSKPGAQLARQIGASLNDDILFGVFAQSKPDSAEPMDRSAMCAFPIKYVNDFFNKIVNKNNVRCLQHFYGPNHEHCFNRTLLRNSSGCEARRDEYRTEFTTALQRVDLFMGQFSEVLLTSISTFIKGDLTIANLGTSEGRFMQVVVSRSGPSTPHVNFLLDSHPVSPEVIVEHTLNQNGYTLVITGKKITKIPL

[3] = biological target: T3, recombinant human MET PSI-IPT domains (human, UniProt P08581 516-932, limits assumed); assay: as above
T3 construct: domain: PSI-IPT; also called PSI-IST (as printed once)
T3 sequence (P08581 516-932 limits assumed): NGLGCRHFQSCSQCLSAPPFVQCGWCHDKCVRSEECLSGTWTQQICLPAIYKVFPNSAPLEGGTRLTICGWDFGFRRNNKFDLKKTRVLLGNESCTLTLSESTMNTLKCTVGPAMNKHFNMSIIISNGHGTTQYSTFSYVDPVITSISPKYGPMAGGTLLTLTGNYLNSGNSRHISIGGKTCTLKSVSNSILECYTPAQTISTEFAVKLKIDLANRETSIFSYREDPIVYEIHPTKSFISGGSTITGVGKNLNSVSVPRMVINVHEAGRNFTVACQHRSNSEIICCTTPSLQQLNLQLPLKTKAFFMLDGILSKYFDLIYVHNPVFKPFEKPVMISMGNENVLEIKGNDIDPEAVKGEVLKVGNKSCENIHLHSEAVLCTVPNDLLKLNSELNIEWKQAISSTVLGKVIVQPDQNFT

[4] = biological target: T1, human MET Receptor on cells; assay: FACS on GTL-16 cells; AF647-R28 fixed at 360 nM, against AF647-R28 without R13
[5] = biological target: T4, recombinant human MET extracellular domain (MET ECD) (human, UniProt P08581 25-932); assay: BIAcore 2000; MET ECD amine-coupled on CM5 chip, antibody injected at 100-1 nM, global fit
T4 construct: extracellular domain; also called full-length MET-ECD molecule
T4 sequence (P08581 25-932): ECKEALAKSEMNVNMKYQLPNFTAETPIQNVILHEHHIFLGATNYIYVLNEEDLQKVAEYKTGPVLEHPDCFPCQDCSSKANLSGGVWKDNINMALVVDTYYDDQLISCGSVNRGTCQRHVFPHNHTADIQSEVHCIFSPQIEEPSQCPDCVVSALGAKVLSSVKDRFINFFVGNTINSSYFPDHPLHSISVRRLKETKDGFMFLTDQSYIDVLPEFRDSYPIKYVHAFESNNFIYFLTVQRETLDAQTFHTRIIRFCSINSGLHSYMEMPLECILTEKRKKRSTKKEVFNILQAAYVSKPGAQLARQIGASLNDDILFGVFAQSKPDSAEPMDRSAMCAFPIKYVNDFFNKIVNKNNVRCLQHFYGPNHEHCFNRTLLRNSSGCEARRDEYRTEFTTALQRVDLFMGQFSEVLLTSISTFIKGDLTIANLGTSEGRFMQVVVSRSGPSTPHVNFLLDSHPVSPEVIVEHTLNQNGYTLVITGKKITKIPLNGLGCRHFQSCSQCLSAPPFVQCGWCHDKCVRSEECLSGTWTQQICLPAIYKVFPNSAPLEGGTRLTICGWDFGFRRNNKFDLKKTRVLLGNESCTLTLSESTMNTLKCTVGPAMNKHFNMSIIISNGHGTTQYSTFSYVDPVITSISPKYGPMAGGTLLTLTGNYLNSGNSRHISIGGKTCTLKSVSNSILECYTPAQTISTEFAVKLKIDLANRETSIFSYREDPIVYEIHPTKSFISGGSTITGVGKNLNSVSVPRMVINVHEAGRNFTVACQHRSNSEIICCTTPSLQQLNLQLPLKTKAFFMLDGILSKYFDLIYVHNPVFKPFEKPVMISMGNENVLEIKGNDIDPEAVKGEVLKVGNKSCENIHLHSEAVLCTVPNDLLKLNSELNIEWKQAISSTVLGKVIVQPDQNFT
Experimental: (§1) Fab and IgG affinities were determined using a BIAcore 2000 instrument. Briefly, MET ECD was immobilized on a CM5 chip using standard amine based chemistry (NHS/EDC). For each Fab and IgG, different concentrations (100-1 nM) were injected over the MET ECD surface and kinetic data were collected over time. The data was fit using the simultaneous global fit equation to yield affinity constants (KD) for each Fab and IgG.

[6] = biological target: T5, recombinant human MET/Fc chimeric protein (R&D Systems) (human, UniProt P08581 25-932); assay: HGF/MET blocking ELISA: antibody preincubated with MET/Fc, added to HGF-coated wells; unit from the legend of FIG. 1
T5 construct: extracellular domain; Bought reagent; also called MET Receptor extracellular domain; not shown: Fc part (detected with anti-human Fc) and any linker of the bought chimera
T5 sequence (P08581 25-932, change not shown): as the sequence (P08581 25-932) above

[7] = biological target: T5, recombinant human MET/Fc chimeric …; assay: HGF/MET blocking ELISA, experiment of Example 3; unit from the legend of FIG. 3; FIG. 3A experiment, antibody alone
Experimental: (§2) After washing the wells once with 0.2% PBS/T, they were blocked with 5% PBS/milk for one hour. […] Washing was repeated as described above. Fifty microliters of substrate were added per well until a yellow color developed. The reaction was then stopped with 50 μL of 1 M H₂SO₄ and the absorbance at 450 nm determined with a standard plate reader.

[8] = biological target: T5, recombinant human MET/Fc chimeric …; assay: HGF/MET blocking ELISA (Dm=IC50): antibody preincubated with MET/Fc, added to HGF-coated wells; unit from the legend of FIG. 2; FIG. 2A, B experiment
Experimental: as §2

[9] = biological target: T4, recombinant human MET extracellular …; assay: BIAcore 2000; MET ECD amine-coupled on CM5 chip, antibody injected at 100-1 nM, global fit; Dimer, not IgG
Experimental: as §1

| Binder | EC50 of antibody-dependent cellular cytotoxicity (ADCC) on GTL-16 cells [1] [µM] | binding result [3] | Kd [5] [µM] | IC50 [6] [µM] | IC50 [7] [µM] | IC50 [8] [µM] | also measured |
| --- | --- | --- | --- | --- | --- | --- | --- |
| B1 | 3.77 | no binding | 0.0479 | – | – | – | binding result [2]: no binding; fold increase of ΔMFI with 20 nM unlabeled R13 [4]: 2.6 fold |
| B2 | – | – | 0.049 | 0.0361 | – | – | – |
| B3 | – | – | 0.0087 | – | 0.106 | 0.0443 | – |
| B4 | 0.479 | no binding | 0.0009 | – | – | – | – |
| B5 | – | – | – | 0.0124 | – | – | – |
| B6 | – | – | – | – | 0.00888 | 0.00508 | Kd [9]: 0.00056 µM |
